Test results from publication PMC8622166.

Key:
[1] = biological target: RAC2 (human), P15153; test: stopped-flow fluorimetry; kon from kobs against increasing GDI concentrations mixed with 0.2 µM mdGDP-bound RHO GTPase; koff by displacement with excess unlabeled GDP-bound RHO protein; Kd = koff/kon; 25 °C, 30 mM Tris/HCl pH 7.5, 10 mM K2HPO4/KH2PO4 pH 7.5, 5 mM MgCl2, 3 mM DTT; conditions: remark: other sources report otherwise
[2] = biological target: RAC3 (human), P60763; test: as above; conditions: remark: other sources report otherwise

Kd [1]: 18.8 µM | fold faster kon than GDI1 [2]: > 10 fold | fold slower koff than GDI1 [2]: < 4 fold
B1: GDI2, P52566 1-201 (natural protein)
chain: MTEKAPEPHVEEDDDDELDSKLNYKPPPQKSLKELQEMDKDDESLIKYKKTLLGDGPVVTDPKAPNVVVTRLTLVCESAPGPITMDLTGDLEALKKETIVLKEGSEYRVKIHFKVNRDIVSGLKYVQHTYRTGVKVDKATFMVGSYGPRPEEYEFLTPVEEAPKGMLARGTYHNKSFFTDDDKQDHLSWEWNLSIKKEWTE
